According to patent EP4786492A1:

Legend:
[1] = biological target: human delta-like ligand 3 (DLL3) on SHP77 cells (human) (UniProt Q9NYJ7); assay: FACS on SHP77 cells
[2] = biological target: DLL3 endogenously expressed on NCI-H82 cells (UniProt Q9NYJ7); assay: FACS on NCI-H82 cells; antibody 4 nM
[3] = biological target: DLL3 endogenously expressed on NCI-H82 cells (UniProt Q9NYJ7); assay: FACS on NCI-H82 cells; antibody 20 nM
[4] = biological target: DLL3 endogenously expressed on NCI-H82 cells (UniProt Q9NYJ7); assay: FACS on NCI-H82 cells; antibody 0.8 nM
[5] = biological target: DLL3 endogenously expressed on NCI-H82 cells (UniProt Q9NYJ7); assay: FACS on NCI-H82 cells; antibody 100 nM
[6] = biological target: DLL3 endogenously expressed on NCI-H82 cells (UniProt Q9NYJ7); assay: FACS on NCI-H82 cells; antibody 0.16 nM
[7] = biological target: human DLL3 protein expressed on CHO-K1 recombinant cells (human DLL3 extracellular segment fused to EpCAM transmembrane and intracellular regions) (human) (UniProt Q9NYJ7); assay: FACS, CHO-K1 hDLL3 cells, 4 nM antibody
[8] = biological target: mouse DLL3 on CHO-K1-mDLL3 cells (mouse) (UniProt O88516); assay: FACS, CHO-K1-mDLL3 cells, 4 nM antibody
[9] = biological target: DLL3 endogenously expressed on NCI-H82 cells (UniProt Q9NYJ7); assay: FACS on NCI-H82 cells; antibody 0.032 nM
[10] = biological target: human DLL3 protein expressed on CHO-K1 recombinant cells (human DLL3 extracellular segment fused to EpCAM transmembrane and intracellular regions) (human) (UniProt Q9NYJ7); assay: FACS, CHO-K1 hDLL3 cells, 20 nM antibody
[11] = biological target: mouse DLL3 on CHO-K1-mDLL3 cells (mouse) (UniProt O88516); assay: FACS, CHO-K1-mDLL3 cells, 20 nM antibody
[12] = biological target: DLL3 endogenously expressed on NCI-H82 cells (UniProt Q9NYJ7); assay: FACS on NCI-H82 cells; antibody 0.0064 nM
[13] = biological target: human DLL3 protein expressed on CHO-K1 recombinant cells (human DLL3 extracellular segment fused to EpCAM transmembrane and intracellular regions) (human) (UniProt Q9NYJ7); assay: FACS, CHO-K1 hDLL3 cells, 0.8 nM antibody
[14] = biological target: human DLL3 protein expressed on CHO-K1 recombinant cells (human DLL3 extracellular segment fused to EpCAM transmembrane and intracellular regions) (human) (UniProt Q9NYJ7); assay: FACS, CHO-K1 hDLL3 cells, 100 nM antibody
[15] = biological target: mouse DLL3 on CHO-K1-mDLL3 cells (mouse) (UniProt O88516); assay: FACS, CHO-K1-mDLL3 cells, 0.8 nM antibody
[16] = biological target: mouse DLL3 on CHO-K1-mDLL3 cells (mouse) (UniProt O88516); assay: FACS, CHO-K1-mDLL3 cells, 100 nM antibody
[17] = biological target: DLL3 endogenously expressed on NCI-H82 cells (UniProt Q9NYJ7); assay: FACS on NCI-H82 cells; antibody 0.00128 nM
[18] = biological target: human DLL3 protein expressed on CHO-K1 recombinant cells (human DLL3 extracellular segment fused to EpCAM transmembrane and intracellular regions) (human) (UniProt Q9NYJ7); assay: FACS, CHO-K1 hDLL3 cells, 0.16 nM antibody
[19] = biological target: mouse DLL3 on CHO-K1-mDLL3 cells (mouse) (UniProt O88516); assay: FACS, CHO-K1-mDLL3 cells, 0.16 nM antibody
[20] = biological target: human DLL3 protein expressed on CHO-K1 recombinant cells (human DLL3 extracellular segment fused to EpCAM transmembrane and intracellular regions) (human) (UniProt Q9NYJ7); assay: FACS, CHO-K1 hDLL3 cells, 0.032 nM antibody
[21] = biological target: monkey DLL3 on CHO-K1-cyno DLL3 cells (cynomolgus monkey); assay: FACS, CHO-K1-cyno DLL3 cells, 4 nM antibody
[22] = biological target: mouse DLL3 on CHO-K1-mDLL3 cells (mouse) (UniProt O88516); assay: FACS, CHO-K1-mDLL3 cells, 0.032 nM antibody
[23] = biological target: human DLL3 protein expressed on CHO-K1 recombinant cells (human DLL3 extracellular segment fused to EpCAM transmembrane and intracellular regions) (human) (UniProt Q9NYJ7); assay: FACS, CHO-K1 hDLL3 cells, 0.0064 nM antibody
[24] = biological target: monkey DLL3 on CHO-K1-cyno DLL3 cells (cynomolgus monkey); assay: FACS, CHO-K1-cyno DLL3 cells, 20 nM antibody
[25] = biological target: mouse DLL3 on CHO-K1-mDLL3 cells (mouse) (UniProt O88516); assay: FACS, CHO-K1-mDLL3 cells, 0.0064 nM antibody
[26] = biological target: human DLL3 protein expressed on CHO-K1 recombinant cells (human DLL3 extracellular segment fused to EpCAM transmembrane and intracellular regions) (human) (UniProt Q9NYJ7); assay: FACS, CHO-K1 hDLL3 cells, 0.00128 nM antibody
[27] = biological target: monkey DLL3 on CHO-K1-cyno DLL3 cells (cynomolgus monkey); assay: FACS, CHO-K1-cyno DLL3 cells, 0.8 nM antibody
[28] = biological target: monkey DLL3 on CHO-K1-cyno DLL3 cells (cynomolgus monkey); assay: FACS, CHO-K1-cyno DLL3 cells, 100 nM antibody
[29] = biological target: mouse DLL3 on CHO-K1-mDLL3 cells (mouse) (UniProt O88516); assay: FACS, CHO-K1-mDLL3 cells, 0.00128 nM antibody
[30] = biological target: monkey DLL3 on CHO-K1-cyno DLL3 cells (cynomolgus monkey); assay: FACS, CHO-K1-cyno DLL3 cells, 0.16 nM antibody
[31] = biological target: monkey DLL3 on CHO-K1-cyno DLL3 cells (cynomolgus monkey); assay: FACS, CHO-K1-cyno DLL3 cells, 0.032 nM antibody
[32] = biological target: monkey DLL3 on CHO-K1-cyno DLL3 cells (cynomolgus monkey); assay: FACS, CHO-K1-cyno DLL3 cells, 0.0064 nM antibody
[33] = biological target: monkey DLL3 on CHO-K1-cyno DLL3 cells (cynomolgus monkey); assay: FACS, CHO-K1-cyno DLL3 cells, 0.00128 nM antibody
[34] = biological target: human DLL1 protein (Acro, Cat. No. DL1-H52H8) (human) (UniProt O00548); assay: ELISA, coated hDLL1; maximum over 0.1, 1, 10, 100 nM antibody
[35] = biological target: human DLL4 protein (Acro, Cat. No. DL4-H5227) (human) (UniProt Q9NR61); assay: ELISA, coated hDLL4; maximum over 0.1, 1, 10, 100 nM antibody
[36] = biological target: human DLL3 protein (extracellular segment, His tag) (human) (UniProt Q9NYJ7); assay: SPR (Biacore 8K), antibody captured on Protein A chip, DLL3 antigen in solution, 1:1 Langmuir fit
Chain of human DLL3 protein (extracellular segment, His tag) (human) (Q9NYJ7 27-492): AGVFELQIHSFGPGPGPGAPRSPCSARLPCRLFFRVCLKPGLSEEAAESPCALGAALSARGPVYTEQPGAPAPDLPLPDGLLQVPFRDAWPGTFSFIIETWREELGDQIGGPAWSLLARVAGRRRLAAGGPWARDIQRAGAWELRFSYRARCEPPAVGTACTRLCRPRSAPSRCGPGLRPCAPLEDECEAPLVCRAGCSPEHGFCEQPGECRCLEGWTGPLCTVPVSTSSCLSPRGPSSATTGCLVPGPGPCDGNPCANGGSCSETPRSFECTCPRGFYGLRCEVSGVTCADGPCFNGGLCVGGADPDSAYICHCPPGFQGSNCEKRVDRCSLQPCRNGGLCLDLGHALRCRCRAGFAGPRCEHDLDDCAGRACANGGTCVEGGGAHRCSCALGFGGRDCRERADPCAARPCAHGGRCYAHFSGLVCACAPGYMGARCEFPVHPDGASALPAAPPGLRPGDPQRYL

Chain of human DLL3 protein expressed on CHO-K1 recombinant cells (human DLL3 extracellular segment fused to EpCAM transmembrane and intracellular regions) (human) (Q9NYJ7 other isoform, or with tags, fused parts or gaps limits assumed): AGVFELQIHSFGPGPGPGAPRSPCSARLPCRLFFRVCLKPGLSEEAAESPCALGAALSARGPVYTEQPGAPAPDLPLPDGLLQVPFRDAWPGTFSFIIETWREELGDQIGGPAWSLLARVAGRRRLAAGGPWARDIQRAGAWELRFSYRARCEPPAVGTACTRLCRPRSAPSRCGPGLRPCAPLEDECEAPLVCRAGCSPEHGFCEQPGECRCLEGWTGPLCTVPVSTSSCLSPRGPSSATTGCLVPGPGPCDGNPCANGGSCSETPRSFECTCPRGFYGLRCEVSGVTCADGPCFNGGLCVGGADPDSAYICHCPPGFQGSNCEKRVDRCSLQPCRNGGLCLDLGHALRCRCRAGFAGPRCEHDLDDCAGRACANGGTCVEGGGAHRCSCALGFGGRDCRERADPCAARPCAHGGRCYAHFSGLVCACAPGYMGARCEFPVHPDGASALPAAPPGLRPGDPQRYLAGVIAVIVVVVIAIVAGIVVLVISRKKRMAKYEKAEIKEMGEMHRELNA
Chain of mouse DLL3 on CHO-K1-mDLL3 cells (mouse) (O88516 other isoform, or with tags, fused parts or gaps limits assumed): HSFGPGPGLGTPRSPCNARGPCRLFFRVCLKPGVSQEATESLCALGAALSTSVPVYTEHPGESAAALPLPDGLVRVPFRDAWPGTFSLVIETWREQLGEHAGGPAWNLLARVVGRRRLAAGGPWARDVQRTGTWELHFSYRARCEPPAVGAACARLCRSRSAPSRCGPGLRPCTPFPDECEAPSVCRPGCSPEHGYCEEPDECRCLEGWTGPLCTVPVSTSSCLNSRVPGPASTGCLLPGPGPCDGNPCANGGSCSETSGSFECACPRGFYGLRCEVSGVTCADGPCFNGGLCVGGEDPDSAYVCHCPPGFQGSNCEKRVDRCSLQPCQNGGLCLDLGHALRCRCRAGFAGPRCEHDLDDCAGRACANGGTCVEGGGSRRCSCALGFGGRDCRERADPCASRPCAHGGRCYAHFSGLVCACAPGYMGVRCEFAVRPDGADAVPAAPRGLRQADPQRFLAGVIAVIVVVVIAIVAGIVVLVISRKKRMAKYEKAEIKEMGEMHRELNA
Chain of human delta-like ligand 3 (DLL3) on SHP77 cells (human) (Q9NYJ7 27-618, stated change not applied): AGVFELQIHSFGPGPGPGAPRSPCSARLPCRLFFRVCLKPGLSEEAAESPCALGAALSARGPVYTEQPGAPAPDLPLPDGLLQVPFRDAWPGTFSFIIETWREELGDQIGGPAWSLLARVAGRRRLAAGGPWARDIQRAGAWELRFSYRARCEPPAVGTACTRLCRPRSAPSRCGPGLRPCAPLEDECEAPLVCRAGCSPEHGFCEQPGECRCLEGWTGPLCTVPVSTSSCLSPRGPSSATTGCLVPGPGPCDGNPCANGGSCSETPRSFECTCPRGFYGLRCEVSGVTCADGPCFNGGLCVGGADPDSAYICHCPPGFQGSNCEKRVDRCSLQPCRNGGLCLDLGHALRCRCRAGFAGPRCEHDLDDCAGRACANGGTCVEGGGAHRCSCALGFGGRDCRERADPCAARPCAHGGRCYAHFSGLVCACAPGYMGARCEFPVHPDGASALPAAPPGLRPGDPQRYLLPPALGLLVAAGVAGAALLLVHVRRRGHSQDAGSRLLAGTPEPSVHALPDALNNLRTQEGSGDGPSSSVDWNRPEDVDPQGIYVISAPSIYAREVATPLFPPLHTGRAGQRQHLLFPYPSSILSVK
Chain of DLL3 endogenously expressed on NCI-H82 cells (Q9NYJ7 27-618): as the sequence (Q9NYJ7 27-618, stated change not applied) above
Chain of monkey DLL3 on CHO-K1-cyno DLL3 cells (cynomolgus monkey) (chain, as listed by the source limits assumed): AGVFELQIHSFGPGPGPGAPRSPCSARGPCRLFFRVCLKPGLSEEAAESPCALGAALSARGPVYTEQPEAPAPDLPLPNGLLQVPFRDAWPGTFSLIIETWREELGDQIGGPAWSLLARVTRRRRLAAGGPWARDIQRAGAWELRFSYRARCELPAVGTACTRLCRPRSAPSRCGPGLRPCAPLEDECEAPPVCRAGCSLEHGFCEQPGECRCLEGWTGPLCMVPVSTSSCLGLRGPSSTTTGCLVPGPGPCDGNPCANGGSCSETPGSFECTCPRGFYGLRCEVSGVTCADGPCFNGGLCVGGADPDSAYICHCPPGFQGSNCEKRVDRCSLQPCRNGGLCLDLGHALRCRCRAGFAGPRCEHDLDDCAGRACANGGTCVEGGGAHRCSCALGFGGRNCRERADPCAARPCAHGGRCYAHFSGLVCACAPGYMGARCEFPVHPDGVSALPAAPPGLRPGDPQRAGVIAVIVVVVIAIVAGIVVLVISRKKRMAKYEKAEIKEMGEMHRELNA
Chain of human DLL4 protein (Acro, Cat. No. DL4-H5227) (human) (Q9NR61 27-524 limits assumed): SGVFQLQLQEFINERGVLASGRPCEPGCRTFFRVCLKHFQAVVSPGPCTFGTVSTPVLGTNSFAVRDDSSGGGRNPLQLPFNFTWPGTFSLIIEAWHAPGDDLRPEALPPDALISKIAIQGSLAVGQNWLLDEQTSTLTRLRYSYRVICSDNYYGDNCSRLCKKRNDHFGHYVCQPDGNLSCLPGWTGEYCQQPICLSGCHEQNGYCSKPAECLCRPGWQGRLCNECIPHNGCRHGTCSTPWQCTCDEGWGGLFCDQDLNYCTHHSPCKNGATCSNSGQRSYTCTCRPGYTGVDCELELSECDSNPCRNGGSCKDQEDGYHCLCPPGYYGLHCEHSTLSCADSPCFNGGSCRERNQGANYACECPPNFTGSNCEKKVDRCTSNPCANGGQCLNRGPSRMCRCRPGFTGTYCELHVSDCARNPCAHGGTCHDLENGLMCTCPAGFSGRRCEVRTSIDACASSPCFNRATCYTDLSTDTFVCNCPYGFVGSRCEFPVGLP
Chain of human DLL1 protein (Acro, Cat. No. DL1-H52H8) (human) (O00548 18-540 limits assumed): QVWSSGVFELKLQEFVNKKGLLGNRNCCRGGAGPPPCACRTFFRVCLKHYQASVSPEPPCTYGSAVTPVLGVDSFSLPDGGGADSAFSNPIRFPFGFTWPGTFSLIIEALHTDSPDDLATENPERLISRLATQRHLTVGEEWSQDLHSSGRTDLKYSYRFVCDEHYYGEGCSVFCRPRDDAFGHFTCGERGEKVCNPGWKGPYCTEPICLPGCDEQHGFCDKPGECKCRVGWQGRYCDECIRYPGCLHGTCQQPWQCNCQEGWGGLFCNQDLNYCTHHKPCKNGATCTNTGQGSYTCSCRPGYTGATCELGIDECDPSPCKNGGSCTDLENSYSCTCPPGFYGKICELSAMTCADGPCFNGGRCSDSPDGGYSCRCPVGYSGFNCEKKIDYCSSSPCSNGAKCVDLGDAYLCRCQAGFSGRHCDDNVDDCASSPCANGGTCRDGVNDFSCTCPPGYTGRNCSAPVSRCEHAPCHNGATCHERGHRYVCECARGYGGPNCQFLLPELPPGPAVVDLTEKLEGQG

B1: Hab015VL5VH6a-hFc (scFv, part only; not given: scFv linker and human IgG1 Fc, V domains shown, not shown: another chain or arm of the molecule; a dimerising Fc or GST; small tags and cut ends)
VL: NIQMTQSPSSLSASVGDRVTITCKASENVGTYVSWYQQKPGKSPKLLIYGASNRYTGVPSRFSGSGSGTDFTLTISSLQPEDFATYYCGQFYSFPSTFGGGTKVEIK
VH: EVQLVESGGGLVKPGGSLRLSCAASGITFSNFWMNWVRQAPEKGLEWVGQIRLKSDDYATHYAESVKGRFTISREDSKNTVYLQMNSLKTEDTAVYYCTTGYYFDYWGQGTTVTVSS
MFI at 0.00128 nM [1]: 101 MFI | MFI at 0.0064 nM [1]: 117 MFI | MFI at 0.032 nM [1]: 171 MFI | MFI at 0.16 nM [1]: 362 MFI | MFI at 0.8 nM [1]: 663 MFI | MFI at 4 nM [1]: 726 MFI | MFI at 20 nM [1]: 770 MFI | MFI at 100 nM [1]: 1090 MFI | MFI [2]: 827 | MFI [3]: 937 | MFI [4]: 755 | MFI [5]: 1220 | MFI [6]: 430 | MFI [7]: 9720 MFI | MFI [8]: 1230 MFI | MFI [9]: 216 | MFI [10]: 10900 MFI | MFI [11]: 1410 MFI | MFI [12]: 127 | MFI [13]: 3960 MFI | MFI [14]: 11300 MFI | MFI [15]: 870 MFI | MFI [16]: 1530 MFI | MFI [17]: 117 | MFI [18]: 883 MFI | MFI [19]: 390 MFI | MFI [20]: 294 MFI | MFI [21]: 6080 MFI | MFI [22]: 185 MFI | MFI [23]: 153 MFI | MFI [24]: 6530 MFI | MFI [25]: 131 MFI | MFI [26]: 122 MFI | MFI [27]: 4080 MFI | MFI [28]: 6850 MFI | MFI [29]: 121 MFI | MFI [30]: 1150 MFI | MFI [31]: 371 MFI | MFI [32]: 169 MFI | MFI [33]: 125 MFI | Emax of OD450 nm binding value [34]: 0.71 OD450 nm | Emax of OD450 nm binding value [35]: 0.82 OD450 nm

B2: Hab014VL1VH2-hFc (scFv, part only; not given: VL-VH linker and human IgG1 Fc, V domains shown, not shown: another chain or arm of the molecule; a dimerising Fc or GST; small tags and cut ends)
VL: DIQMTQSPSSLSASVGDRVTITCKASEDIYNRLAWYQQKPGKVPKLLISGATSLETGVPSRFSGSGSGTDFTLTISSLQPEDVATYYCQQYWSLPWTFGGGTKVEIK
VH: EVQLVQSGAEVKKPGASVKVSCKASGYTFTDYYMNWVRQAPGQRLEWMGDINPNHGDTGYNQKFTGRVTLTVDKSASTAYMELSSLRSEDTAVYYCARNFFYYGTTYGWYFDVWGQGTTVTVSS
MFI at 0.00128 nM [1]: 90 MFI | MFI at 0.0064 nM [1]: 94 MFI | MFI at 0.032 nM [1]: 116 MFI | MFI at 0.16 nM [1]: 192 MFI | MFI at 0.8 nM [1]: 403 MFI | MFI at 4 nM [1]: 628 MFI | MFI at 20 nM [1]: 818 MFI | MFI at 100 nM [1]: 1120 MFI | MFI [2]: 625 | MFI [3]: 784 | MFI [4]: 580 | MFI [5]: 1100 | MFI [6]: 419 | MFI [7]: 14000 MFI | MFI [8]: 311 MFI | MFI [9]: 204 | MFI [10]: 15100 MFI | MFI [11]: 355 MFI | MFI [12]: 130 | MFI [13]: 9190 MFI | MFI [14]: 16000 MFI | MFI [15]: 268 MFI | MFI [16]: 389 MFI | MFI [17]: 110 | MFI [18]: 2130 MFI | MFI [19]: 208 MFI | MFI [20]: 698 MFI | MFI [21]: 25900 MFI | MFI [22]: 148 MFI | MFI [23]: 306 MFI | MFI [24]: 31500 MFI | MFI [25]: 122 MFI | MFI [26]: 221 MFI | MFI [27]: 9960 MFI | MFI [28]: 32800 MFI | MFI [29]: 109 MFI | MFI [30]: 2190 MFI | MFI [31]: 692 MFI | MFI [32]: 306 MFI | MFI [33]: 215 MFI | Emax of OD450 nm binding value [34]: 0.1 OD450 nm | Emax of OD450 nm binding value [35]: 0.13 OD450 nm | Kd [36]: 0.0772 nM | koff [36]: 7.84e-05 s⁻¹ | kon [36]: 1.02e+06 M⁻¹ s⁻¹
